The values that follow come from US8624002B2, “Prostaglandin E2 binding proteins and uses thereof” (AbbVie, Inc., priority 2008, dated 2014).

Changes are numbered by the printed parent chain.

Data set [1] is described as follows: PGE2 competition ELISA, format not stated (biotin-PGE2 or ^3H-PGE2). In kind it is binding. Particulars: humanized antibodies table. How it is done: Competition enzyme linked immunosorbent assays were performed to determine prostaglandin binding specificity for antibodies that bind prostaglandin E2, according to at least one of the two following methods.
ELISA plates (Costar 3369, Corning, N.Y.) were coated with 50 μl/well of anti-host Fc IgG (Sigma, St. Louis, Mo.) at 2 μg/ml in PBS (Invitrogen, Carlsbad, Calif.). Following an overnight incubation at 4° C., the plate was blocked with 200 μl Superblock (Pierce #37535, Rockford, Ill.). The IgG samples were diluted to 6 μg/ml in Assay Buffer (10% Superblock in PBS containing 0.05% Surfactamps (Pierce #37535, Rockford, Ill.). The PGE2-biotinamide was diluted to 3 nM in Assay Buffer. A titration curve in Assay Buffer was prepared for the prostaglandins PGA2 (Cayman Chemicals, Ann Arbor, Mich.), PGD2 (Cayman Chemicals, Ann Arbor, Mich.) and PGE2 (Cayman Chemicals, Ann Arbor, Mich.) starting at 300 nM by a 1:10 serial dilution. The reagents were added to tubes at a volume of 50 μl each/tube and preincubated for 1 hour at room temperature. Following the preincubation, the mix was transferred to the blocked plates and allowed to incubate for 1 hour at room temperature. Next, the plates were washed four times with Tween 20-Tris buffered solution (TTBS). Streptavidin polyhrp40 in Assay Buffer (Fitzgerald Industries, Concord, Mass.) at a 1:5000 dilution was then added to the wells and incubated for 45 minutes at room temperature. A final wash step was performed and the plates were developed using a single step TMB system (Sigma #T8665, Sigma, St. Louis, Mo.) and 100 μl/well 2N H2SO4. Plates were read at 450 nm on a Molecular Devices Spectramax plate reader (Sunnyvale, Calif.). […] IC50 number was determined using GraphPad Prism 5 (GraphPad Software, La Jolla, Calif.). The cross reactivity index was then calculated by IC50 of PGE2/IC50 of other prostaglandin(s).
Alternatively, prostaglandin selectivity was determined using a ^3H-PGE2 competition ELISA. Plates were coated with 50 μL/well of 5 μg/ml of goat anti-human IgG (Fc) (Thermo Scientific # 31170, Hudson, N.H.) or goat anti-mouse IgG (Fc) (Thermo Scientific # 31125, Hudson, N.H.) in PBS and incubated overnight at 4° C. The following day plates were flicked and blotted dry. Plates were blocked with 200 μL/well of Superblock (Thermo Scientific # 37515, Hudson, N.H.), 1 hour at room temperature. Plates were flicked and blotted dry. Monoclonal antibodies were diluted to 0.04 μg/ml in PBST (Abbott Bioresearch Center, Worcester, Mass.)/10% Superblock and 50 μL of each was added to each well (2 ng/well) of the pre-blocked ELISA plate and incubated for 1 hour at room temperature. Wells were washed 3 times with PBS/0.1% Tween-20. ^3H-PGE2 (Perkin Elmer # NET-428, Waltham, Mass.) was diluted in PBST/10% Superblock to 6 nM (2× stock). Each prostaglandin (Cayman Chemicals, Ann Arbor, Mich.) was prepared in PBST+10% Superblock at various concentrations ranging from 2000 μM (2× stock) to 0.00004 μM (2×). Equal volumes of the ^3H-PGE2 solution and of each prostaglandin dilution were mixed. Fifty microliters of this mixture was then added to each well of the plate and incubated for 1 hour at room temperature. Wells were washed manually 6 times with PBST/10% Superblock and 50 μL of scintillation fluid (Perkin Elmer # 6013621, Waltham, Mass.) added to each well. Plates were read using a TopCount reader (Perkin Elmer, Waltham, Mass.) with a 5 minute count delay. IC50 number was determined using GraphPad Prism 5 (GraphPad Software, La Jolla, Calif.). The cross reactivity index was then calculated by IC50 of PGE2/IC50 of other prostaglandin(s)
Several antibodies, named 19C9, 4F10 and 15F10 specific for PGE2 were isolated. […] The specificity of these antibodies for PGE2 was further determined by a competition ELISA with various prostaglandins as described in Example 1.B (Table 2). […]
In general terms: ELISA stands for enzyme-linked immunosorbent assay.

A short description of data set [2]: Capillary zone electrophoresis. In kind it is physicochemical. Particulars: running buffer pH 5.5; compared with Hu2B5.2, Hu2B5.4, Hu2B5.6, Hu2B5.8. The source says:
Capillary zone electrophoresis is a capillary electrophoresis method in which the capillary is filled with buffer and the separation mechanism is based on differences in electrophoretic mobility of the analyte through the buffer. The electrophoretic mobility of a molecule is related to the charge-to-size ratio. A Beckman-Coulter ProteomeLab PA 800 (Beckman Coulter, Fullerton, Calif.) was used for the CZE analysis. A neutral capillary (eCAP neutral, 56 cm total length, 50 μm I. D. Beckman-Coulter, P/N 477441, Fullerton, Calif.) was used. The method used a 30.2 cm capillary with a detection window 20.2 cm from the sample introduction inlet. The running buffer was 100 mM EACA (6-Aminocaproic acid, Sigma A7824-100 G, St. Louis, Mo.) with 0.1% MC (from 1% Methylcellulose solution, Convergent Bioscience, cat# 101876, Toronto, ON, Canada), pH 5.5.

A short description of data set [3]: Intrinsic thermodynamic stability by DSC. In kind it is physicochemical. Particulars: for Tm1 (° C.): 0.79 mg/mL, pH 6, 10 mM citrate, 10 mM phosphate; for Tm2 (° C.) / Tm3 (° C.): same buffer. How it is done: The thermal stability of the anti-PGE2 antibodies was assessed using a DSC instrument. The DSC instrument used was an automated VP-DSC equipment with Capillary Cell (Microcal, GE Healthcare Ltd./Microcal, Buckinghamshire, UK). Unfolding of molecules was studied applying a 1° C./minute scan rate over a 25° C.-95° C. temperature range for samples at 1 mg/mL. Additional measurement parameters applied were a fitting period of 16 seconds, a pre-scan wait time of 10 minutes, and measurements were performed in none-feedback mode. Per individual measurement, 420 μL of sample/blank were filled into the DSC measurement sample holder, with a plate fill scheme as provided below. The thermograms obtained were fitted to a non two state model to obtain the midpoint temperatures and enthalpies of the different transitions.
The stability of a series of clones (i.e., anti-PGE2 antibodies) of the parent anti-PGE2 antibody was assessed by using intrinsic thermodynamic clone stability determination using DSC (0.79 mg/mL clone concentration, formulated at pH 6 in a 10 mM citrate, 10 mM phosphate buffer) and by accelerated stability screening (0.79 mg/mL clone concentration, formulated at pH 6 in a 10 mM citrate, 10 mM phosphate buffer, for 7 days at 50° C.) where clone stability was monitored with SEC (Table 15).
A general note: Differential scanning calorimetry records heat flow against a reference as temperature is scanned.

B1: Hu2B5.1: humanized 2B5-8.0; VH SEQ ID NO 60, VL SEQ ID NO 61 (antibody, V domains shown)
VH: EVQLVQSGAEVKKPGASVKVSCKASGYTFTKYWLGWVRQAPGQGLEWIGDIYPGYDYTHYNEKFKDRATLTVDTSTSTAYMELRSLRSDDTAVYYCARSDGSSTYWGQGTLVTVSS
VL: DVVMTQTPLSLPVTPGEPASISCTSSQNIVHSNGNTYLEWYLQKPGQSPQLLIYKVSNRFSGVPDRFSGSGSGTDFTLKISRVEAEDVGVYYCFQVSHVPYTFGGGTKVEIKR
For the molecule B1, in data set [1], the “Cross Reactivity Index (%) PGA2” value is given as 0.21%, the “Cross Reactivity Index (%) PGD2” value is recorded as less than 0.01% and the “Cross Reactivity Index (%) PGE1” value is 16%. Besides, the “migration in capillary zone electrophoresis” value in data set [2] is “migrated more basic”. In data set [3], the “Tm1 (° C.)” value was found to be 72.835 °C, the “Tm2 (° C.)” value stood at 75.02 °C and the “Tm3 (° C.)” value came to 82.785 °C.

B2: Hu2B5.4: humanized 2B5-8.0; VH SEQ ID NO 66, VL SEQ ID NO 67 (antibody, V domains shown)
VH: B1 VH with R84S
VL: B1 VL with V3L
With B2, in data set [1], the “Cross Reactivity Index (%) PGA2” value came out at 0.22%, the “Cross Reactivity Index (%) PGD2” value was less than 0.01% and the “Cross Reactivity Index (%) PGE1” value was 14%. Further, in data set [3], the “Tm1 (° C.)” value came out at 71.095 °C, the “Tm2 (° C.)” value worked out at 72.41 °C and the “Tm3 (° C.)” value was 82.58 °C.

B3: Hu2B5.3: humanized 2B5-8.0; VH SEQ ID NO 64, VL SEQ ID NO 65 (antibody, V domains shown)
VH: B1 VH
VL: B1 VL with V3L
For the molecule B3, in data set [1], the “Cross Reactivity Index (%) PGA2” value was 0.18%, the “Cross Reactivity Index (%) PGD2” value was less than 0.01% and the “Cross Reactivity Index (%) PGE1” value was found to be 14%. Moreover, the “migration in capillary zone electrophoresis” value in data set [2] is given as “migrated more basic”. In data set [3], the “Tm1 (° C.)” value is 72.67 °C, the “Tm2 (° C.)” value was determined as 72.96 °C and the “Tm3 (° C.)” value came to 82.67 °C.

B4: Hu2B5.6: humanized 2B5-8.0; VH SEQ ID NO 70, VL SEQ ID NO 71 (antibody, V domains shown)
VH: B1 VH with I48M, A68V, V72T, R84S
VL: B1 VL
With B4, in data set [1], the “Cross Reactivity Index (%) PGA2” value came out at 0.15%, the “Cross Reactivity Index (%) PGD2” value was less than 0.01% and the “Cross Reactivity Index (%) PGE1” value is listed as 11%. In data set [3], the “Tm1 (° C.)” value came to 73.035 °C, the “Tm2 (° C.)” value is 75.585 °C and the “Tm3 (° C.)” value was found to be 82.95 °C.

B5: Hu2B5.2: humanized 2B5-8.0; VH SEQ ID NO 62, VL SEQ ID NO 63 (antibody, V domains shown)
VH: B1 VH with R84S
VL: B1 VL
As to B5, in data set [1], the “Cross Reactivity Index (%) PGA2” value is reported as 0.18%, the “Cross Reactivity Index (%) PGD2” value is on record as less than 0.01% and the “Cross Reactivity Index (%) PGE1” value is 14%. Moreover, in data set [3], the “Tm1 (° C.)” value is 72.845 °C, the “Tm2 (° C.)” value is 75.08 °C and the “Tm3 (° C.)” value was 82.67 °C.

B6: Hu2B5.8: humanized 2B5-8.0; VH SEQ ID NO 74, VL SEQ ID NO 75 (antibody, V domains shown)
VH: B1 VH with I48M, A68V, V72T, R84S
VL: B1 VL with V3L
In the case of B6, in data set [1], the “Cross Reactivity Index (%) PGA2” value was 0.20%, the “Cross Reactivity Index (%) PGD2” value is on record as less than 0.01% and the “Cross Reactivity Index (%) PGE1” value is listed as 8.5%. In data set [3], the “Tm1 (° C.)” value turned out to be 72.96 °C, the “Tm2 (° C.)” value came to 75.33 °C and the “Tm3 (° C.)” value was determined as 82.83 °C.
